The nature of this data set: protein stability index of a GFP-peptide fusion (yeast GPS) (PSI 1-4); higher = more stable; sorted into four equal gates, so the index is relative within each strain. The procedure, abridged: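 Tiled 17-residue peptides from yeast proteins were fused downstream of GFP on a plasmid that also expresses Cherry, and the pooled library was carried in yeast. Mid-log cultures grown in leucine-free medium were sorted into four equal gates by GFP/Cherry fluorescence ratio. Plasmids from each gate were PCR-amplified and Illumina-sequenced, and reads were assigned to strains by barcodes. Each peptide's protein stability index is the sum, over gates, of the gate's read frequency multiplied by its gate number.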

± gives the uncertainty stated by the source.

Consider ATGFGAHMANPLLRKVV [PRE4], for which the protein stability index is 3.29 ± 0.14 (doa10∆), 3.02 ± 0.13 (pdr5∆), 1.58 ± 0.17 (san1∆) and 3.34 ± 0.18 (ubr1∆).
On the same counts, the results for MQRQQQGISGSQQNIVP [SNF2] are 2.91 ± 0.059, 3.14 ± 0.05, 3.19 ± 0.046 and 3.01 ± 0.047.
On the same counts, the results for AQTEIKLFNKWSFEEVE [RPS5] are 3.2 ± 0.092, 3.23 ± 0.11, 3.51 ± 0.09 and 3.22 ± 0.069.
On the same counts, the results for LQGIVIWDSQKFFIMIV [POP4] are 1.7 ± 0.059, 1.91 ± 0.064, 2.21 ± 0.076 and 2.3 ± 0.045.
For ANIQLDFPELKPYKQVK [FAS2], the protein stability index is 3.16 ± 0.1 (doa10∆), 2.85 ± 0.094 (pdr5∆), 2.97 ± 0.11 (san1∆) and 3.17 ± 0.077 (ubr1∆).
On the same counts, the results for KDLSNYRKTEGIFEKAK [YMR153W/NUP53] are 3.01 ± 0.11, 2.75 ± 0.1, 3.04 ± 0.1 and 2.74 ± 0.086.
On the same counts, the results for QQRKQKKNRDKKIFGTG [RPS24A] are 3.17 ± 0.093, 3.14 ± 0.055, 3.25 ± 0.035 and 3.06 ± 0.067.
On the same counts, the results for FDDLEVEELPTFHDYDM [RRP42] are 2.6 ± 0.069, 2.63 ± 0.064, 2.79 ± 0.043 and 2.88 ± 0.043.
On to KKRAPRAVKEIKKFAKL [RPL31A], for which the protein stability index by setting is: (pdr5∆) 3.15 ± 0.21; (san1∆) 2.86 ± 0.16.
On to RGKDCTVVISQKKVPDK [SCL1], for which the protein stability index (doa10∆) was 2.59 ± 0.086, the protein stability index (pdr5∆) was 2.83 ± 0.076, the protein stability index (san1∆) is 2.83 ± 0.074 and the protein stability index (ubr1∆) is 2.71 ± 0.051.
On the same counts, the results for KVSPEELPLVITMPATN [ARP7] are 2.64 ± 0.053, 2.68 ± 0.065, 2.57 ± 0.053 and 2.57 ± 0.042.
Regarding ALQDKEITSVLSNLHES [SNF12], the protein stability index stood at 2.93 ± 0.083 (doa10∆), 3.43 ± 0.13 (pdr5∆), 2.94 ± 0.064 (san1∆) and 3.13 ± 0.056 (ubr1∆).
With RSLDENRLEIKYHNDLI [SMC1], the protein stability index (pdr5∆) is 3.2 ± 0.29, the protein stability index (san1∆) came to 2.78 ± 0.26 and the protein stability index (ubr1∆) is 3.14 ± 0.24.
Take TQTEELKFMAASEVATH [PRP8]: the protein stability index was found to be 2.38 ± 0.084 (doa10∆), 2.48 ± 0.08 (pdr5∆), 2.35 ± 0.081 (san1∆) and 2.66 ± 0.066 (ubr1∆).
On the same counts, the results for YNVKNIIQGRKNFDMLN [PCI8] are 2.51 ± 0.035, 2.52 ± 0.037, 2.72 ± 0.039 and 2.58 ± 0.028.
On the same counts, the results for NNNSNNIMSASGGLFGN [YGL172W/NUP49] are 2.97 ± 0.041, 3.02 ± 0.041, 3.13 ± 0.051 and 3.2 ± 0.035.
As to ALQQQQQQQQNQQQQNQ [SWI1], the protein stability index is, setting by setting: (doa10∆) 2.77 ± 0.062; (pdr5∆) 2.97 ± 0.068; (san1∆) 2.75 ± 0.047; (ubr1∆) 2.78 ± 0.079.
On the same counts, the results for QQQSADHDDSTDDADDH [NSL1] are 2.91 ± 0.059, 2.91 ± 0.064, 2.77 ± 0.057 and 3.01 ± 0.037.
ILMGFTLKDNIVVMDCF [RRI1] showed a protein stability index (pdr5∆) of 1.97 ± 0.084, a protein stability index (san1∆) of 2.74 ± 0.12 and a protein stability index (ubr1∆) of 1.39 ± 0.14.
As to GWPKLQLGPQTPAFNTA [ECM29], the protein stability index turned out to be 1.43 ± 0.21 (doa10∆), 1.48 ± 0.16 (pdr5∆), 1.42 ± 0.17 (san1∆) and 1.68 ± 0.2 (ubr1∆).
